Experimental data taken from the supplement of paper PMC5998384.

Key:
HeLa Kyoto [1] = assay: solubility in G1/S (NP-40 vs SDS abundance) (log2 ratio); higher = more soluble; details: cell cycle stage: G1/S
HeLa Kyoto [2] = assay: solubility change mitosis vs G1/S (difference of NP-40 vs SDS log2 ratios) (log2 ratio difference); higher = more soluble in mitosis
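For solubility change mitosis vs G1/S (difference of NP-40 vs SDS log2 ratios) in this document: synchronized HeLa Kyoto cells (double thymidine block for G1/S, nocodazole release for mitosis), protein amounts in NP-40 versus SDS lysates quantified by mass spectrometry, three biological replicates.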
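For solubility in G1/S (NP-40 vs SDS abundance) in this document: HeLa Kyoto cells arrested at G1/S by double thymidine block, proteins quantified by TMT10plex mass spectrometry in mild NP-40 versus SDS extracts, three biological replicates.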

Row | Sequence | solubility in G1/S (log2) (HeLa Kyoto [1]) | solubility change mitosis (log2) (HeLa Kyoto [2])
1 | MTPVRMQHSLAGQTYAVPLIQPDLRREEAVQQMADALQYLQKVSGDIFSRISQQVEQSRSQVQAIGEKVSLAQAKIEKIKGSKKAIKVFSSAKYPAPERLQEYGSIFTGAQDPGLQRRPRHRIQSKHRPLDERALQEKLKDFPVCVSTKPEPEDDAEEGLGGLPSNISSVSSLLLFNTTENLYKKYVFLDPLAGAVTKTHVMLGAETEEKLFDAPLSISKREQLEQQVPENYFYVPDLGQVPEIDVPSYLPDLPGIANDLMYIADLGPGIAPSAPGTIPELPTFHTEVAEPLKVDLQDGVLTPPPPPPPPPPAPEVLASAPPLPPSTAAPVGQGARQDDSSSSASPSVQGAPREVVDPSGGRATLLESIRQAGGIGKAKLRSMKERKLEKKKQKEQEQVRATSQGGHLMSDLFNKLVMRRKGISGKGPGAGEGPGGAFARVSDSIPPLPPPQQPQAEEDEDDWES [WASH2P] | 0.453 | 0.0339
2 | MTQDRPLLAVQEALKKCFPVVEEQQGLWQSALRDCQPLLSSLSNLAEQLQAAQNLRFEDVPALRAFPDLKERLRRKQLVAGDIVLDKLGERLAILLKVRDMVSSHVERVFQIYEQHADTVGIDAVLQPSAVSPSVADMLEWLQDIERHYRKSYLKRKYLLSSIQWGDLANIQALPKAWDRISKDEHQDLVQDILLNVSFFLEE [C1ORF109] | 0.0701 | 0.16
3 | MTSKGPEEEHPSVTLFRQYLRIRTVQPKPDYGAAVAFFEETARQLGLGCQKVEVAPGYVVTVLTWPGTNPTLSSILLNSHTDVVPVFKEHWSHDPFEAFKDSEGYIYARGAQDMKCVSIQYLEAVRRLKVEGHRFPRTIHMTFVPDEEVGGHQGMELFVQRPEFHALRAGFALDEGIANPTDAFTVFYSERSPWWVRVTSTGRPGHASRFMEDTAAEKLHKVVNSILAFREKEWQRLQSNPHLKEGSVTSVNLTKLEGGVAYNVIPATMSASFDFRVAPDVDFKAFEEQLQSWCQAAGEGVTLEFAQKWMHPQVTPTDDSNPWWAAFSRVCKDMNLTLEPEIMPAATDNRYIRAVGVPALGFSPMNRTPVLLHDHDERLHEAVFLRGVDIYTRLLPALASVPALPSDS [ACY1] | 0.288 | -0.0632
4 | MTTRQATKDPLLRGVSPTPSKIPVRSQKRTPFPTVTSCAVDQENQDPRRWVQKPPLNIQRPLVDSAGPRPKARHQAETSQRLVGISQPRNPLEELRPSPRGQNVGPGPPAQTEAPGTIEFVADPAALATILSGEGVKSCHLGRQPSLAKRVLVRGSQGGTTQRVQGVRASAYLAPRTPTHRLDPARASCFSRLEGPGPRGRTLCPQRLQALISPSGPSFHPSTRPSFQELRRETAGSSRTSVSQASGLLLETPVQPAFSLPKGEREVVTHSDEGGVASLGLAQRVPLRENREMSHTRDSHDSHLMPSPAPVAQPLPGHVVPCPSPFGRAQRVPSPGPPTLTSYSVLRRLTVQPKTRFTPMPSTPRVQQAQWLRGVSPQSCSEDPALPWEQVAVRLFDQESCIRSLEGSGKPPVATPSGPHSNRTPSLQEVKIQRIGILQQLLRQEVEGLVGGQCVPLNGGSSLDMVELQPLLTEISRTLNATEHNSGTSHLPGLLKHSGLPKPCLPEECGEPQPCPPAEPGPPEAFCRSEPEIPEPSLQEQLEVPEPYPPAEPRPLESCCRSEPEIPESSRQEQLEVPEPCPPAEPRPLESYCRIEPEIPESSRQEQLEVPEPCPPAEPGPLQPSTQGQSGPPGPCPRVELGASEPCTLEHRSLESSLPPCCSQWAPATTSLIFSSQHPLCASPPICSLQSLRPPAGQAGLSNLAPRTLALRERLKSCLTAIHCFHEARLDDECAFYTSRAPPSGPTRVCTNPVATLLEWQDALCFIPVGSAAPQGSP [TROAP] | 0.0401 | 0.651
5 | MVARVWSLMRFLIKGSVAGGAVYLVYDQELLGPSDKSQAALQKAGEVVPPAMYQFSQYVCQQTGLQIPQLPAPPKIYFPIRDSWNAGIMTVMSALSVAPSKAREYSKEGWEYVKARTK [MIC13] | 0.091 | 0.449
6 | MVDHLANTEINSQRIAAVESCFGASGQPLALPGRVLLGEGVLTKECRKKAKPRIFFLFNDILVYGSIVLNKRKYRSQHIIPLEEVTLELLPETLQAKNRWMIKTAKKSFVVSAASATERQEWISHIEECVRRQLRATGRPPSTEHAAPWIPDKATDICMRCTQTRFSALTRRHHCRKCGFVVCAECSRQRFLLPRLSPKPVRVCSLCYRELAAQQRQEEAEEQGAGSPGQPAHLARPICGASSGDDDDSDEDKEGSRDGDWPSSVEFYASGVAWSAFHS [PLEKHF1] | 0.0679 | 0.00206
7 | MVKLIHTLADHGDDVNCCAFSFSLLATCSLDKTIRLYSLRDFTELPHSPLKFHTYAVHCCCFSPSGHILASCSTDGTTVLWNTENGQMLAVMEQPSGSPVRVCQFSPDSTCLASGAADGTVVLWNAQSYKLYRCGSVKDGSLAACAFSPNGSFFVTGSSCGDLTVWDDKMRCLHSEKAHDLGITCCDFSSQPVSDGEQGLQFFRLASCGQDCQVKIWIVSFTHILGFELKYKSTLSGHCAPVLACAFSHDGQMLVSGSVDKSVIVYDTNTENILHTLTQHTRYVTTCAFAPNTLLLATGSMDKTVNIWQFDLETLCQARRTEHQLKQFTEDWSEEDVSTWLCAQDLKDLVGIFKMNNIDGKELLNLTKESLADDLKIESLGLRSKVLRKIEELRTKVKSLSSGIPDEFICPITRELMKDPVIASDGYSYEKEAMENWISKKKRTSPMTNLVLPSAVLTPNRTLKMAINRWLETHQK [WDSUB1] | -0.0154 | -0.112
8 | MVTNKMTAAFRNPSGKQVATDKVAEKLSSTLSWVKNTVSHTVSQMASQVASPSTSLHTTSSSTTLSTPALSPSSPSQLSPDDLELLAKLEEQNRLLETDSKSLRSVNGSRRNSGSSLVSSSSASSNLSHLEEDSWILWGRIVNEWEDVRKKKEKQVKELVHKGIPHHFRAIVWQLLCSAQSMPIKDQYSELLKMTSPCEKLIRRDIARTYPEHNFFKEKDSLGQEVLFNVMKAYSLVDREVGYCQGSAFIVGLLLMQMPEEEAFCVFVKLMQDYRLRELFKPSMAELGLCMYQFECMIQEHLPELFVHFQSQSFHTSMYASSWFLTIFLTTFPLPIATRIFDIFMSEGLEIVFRVGLALLQMNQAELMQLDMEGMLQHFQKVIPHQFDGVPDKLIQAAYQVKYNSKKMKKLEKEYTTIKTKEMEEQVEIKRLRTENRLLKQRIETLEKHKCSSNYNEDFVLQLEKELVQARLSEAESQCALKEMQDKVLDIEKRNNSLPDENNIARLQEELIAVKLREAEAIMGLKELRQQVKDLEEHWQRHLARTTGRWKDPPKKNAMNELQDELMTIRLREAETQAEIREIKQRMMEMETQNQINSNHLRRAEQEVISLQEKVQYLSAQNKGLLTQLSEAKRKQAEIECKNKEEVMAVRLREADSIAAVAELRQHIAELEIQKEEGKLQGQLNKSDSNQYIGELKDQIAELNHELRCLKGQRGFSGQPPFDGIHIVNHLIGDDESFHSSDEDFIDNSLQETGVGFPLHGKSGSMSLDPAVADGSESETEDSVLETRESNQVVQKERPPRRRESYSTTV [EVI5] | 0.129 | -0.288
9 | MWCIVLFSLLAWVYAEPTMYGEILSPNYPQAYPSEVEKSWDIEVPEGYGIHLYFTHLDIELSENCAYDSVQIISGDTEEGRLCGQRSSNNPHSPIVEEFQVPYNKLQVIFKSDFSNEERFTGFAAYYVATDINECTDFVDVPCSHFCNNFIGGYFCSCPPEYFLHDDMKNCGVNCSGDVFTALIGEIASPNYPKPYPENSRCEYQIRLEKGFQVVVTLRREDFDVEAADSAGNCLDSLVFVAGDRQFGPYCGHGFPGPLNIETKSNALDIIFQTDLTGQKKGWKLRYHGDPMPCPKEDTPNSVWEPAKAKYVFRDVVQITCLDGFEVVEGRVGATSFYSTCQSNGKWSNSKLKCQPVDCGIPESIENGKVEDPESTLFGSVIRYTCEEPYYYMENGGGGEYHCAGNGSWVNEVLGPELPKCVPVCGVPREPFEEKQRIIGGSDADIKNFPWQVFFDNPWAGGALINEYWVLTAAHVVEGNREPTMYVGSTSVQTSRLAKSKMLTPEHVFIHPGWKLLEVPEGRTNFDNDIALVRLKDPVKMGPTVSPICLPGTSSDYNLMDGDLGLISGWGRTEKRDRAVRLKAARLPVAPLRKCKEVKVEKPTADAEAYVFTPNMICAGGEKGMDSCKGDSGGAFAVQDPNDKTKFYAAGLVSWGPQCGTYGLYTRVKNYVDWIMKTMQENSTPRED [C1S] | 0.0236 | -0.029
10 | MWEKMETKTIVYDLDTSGGLMEQIQALLAPPKTDEAEKRSRKPEKEPRRSGRATNHDSCDSCKEGGDLLCCDHCPAAFHLQCCNPPLSEEMLPPGEWMCHRCTVRRKKREQKKELGHVNGLVDKSGKRTTSPSSDTDLLDRSASKTELKAIAHARILERRASRPGTPTSSASTETPTSEQNDVDEDIIDVDEEPVAAEPDYVQPQLRRPFELLIAAAMERNPTQFQLPNELTCTTALPGSSKRRRKEETTGKNVKKTQHELDHNGLVPLPVKVCFTCNRSCRVAPLIQCDYCPLLFHMDCLEPPLTAMPLGRWMCPNHIEHVVLNQKNMTLSNRCQVFDRFQDTVSQHVVKVDFLNRIHKKHPPNRRVLQSVKRRSLKVPDAIKSQYQFPPPLIAPAAIRDGELICNGIPEESQMHLLNSEHLATQAEQQEWLCSVVALQCSILKHLSAKQMPSHWDSEQTEKADIKPVIVTDSSVTTSLQTADKTPTPSHYPLSCPSGISTQNSLSCSPPHQSPALEDIGCSSCAEKSKKTPCGTANGPVNTEVKANGPHLYSSPTDSTDPRRLPGANTPLPGLSHRQGWPRPLTPPAAGGLQNHTVGIIVKTENATGPSSCPQRSLVPVPSLPPSIPSSCASIENTSTLQRKTVQSQIGPPLTDSRPLGSPPNATRVLTPPQAAGDGILATTANQRFSSPAPSSDGKVSPGTLSIGSALTVPSFPANSTAMVDLTNSLRAFMDVNGEIEINMLDEKLIKFLALQRIHQLFPSRVQPSPGSVGTHQLASGGHHIEVQRKEVQARAVFYPLLGLGGAVNMCYRTLYIGTGADMDVCLTNYGHCNYVSGKHACIFYDENTKHYELLNYSEHGTTVDNVLYSCDFSEKTPPTPPSSIVAKVQSVIRRRRHQKQDEEPSEEAAMMSSQAQGPQRRPCNCKASSSSLIGGSGAGWEGTALLHHGSYIKLGCLQFVFSITEFATKQPKGDASLLQDGVLAEKLSLKPHQGPVLRSNSVP [PHF12] | -0.326 | 0.237
11 | MWGFRLLRSPPLLLLLPQLGIGNASSCSQARTMNPGGSGGARCSLSAEVRRRQCLQLSTVPGADPQRSNELLLLAAAGEGLERQDLPGDPAKEEPQPPPQHHVLYFPGDVQNYHEIMTRHPENYQWENWSLENVATILAHRFPNSYIWVIKCSRMHLHKFSCYDNFVKSNMFGAPEHNTDFGAFKHLYMLLVNAFNLSQNSLSKKSLNVWNKDSIASNCRSSPSHTTNGCQGEKVRTCEKSDESAMSFYPPSLNDASFTLIGFSKGCVVLNQLLFELKEAKKDKNIDAFIKSIRTMYWLDGGHSGGSNTWVTYPEVLKEFAQTGIIVHTHVTPYQVRDPMRSWIGKEHKKFVQILGDLGMQVTSQIHFTKEAPSIENHFRVHEVF [C2ORF69] | 0.0592 | 0.0615
